The target of assay [1] is human NKG2A/CD94 on cells (CHOK1-hNKG2A/CD94) (human) (UniProt P26715). Put plainly: cell-based or functional assay.
Assay [2] has the same target. Description: cell-based or functional assay. This is another data set of the same source.
For assay [3] the target is unchanged. Put plainly: FACS on human NKG2A overexpressing cell line.

Data on 1 molecule can be found in patent US20260209347A1 (BIORAY PHARMACEUTICAL, published 2026).

Read-outs that look alike come from different tables or passages of the source.

Chain of human NKG2A/CD94 on cells (CHOK1-hNKG2A/CD94) (human) (P26715 whole entry, chain 1 of 2): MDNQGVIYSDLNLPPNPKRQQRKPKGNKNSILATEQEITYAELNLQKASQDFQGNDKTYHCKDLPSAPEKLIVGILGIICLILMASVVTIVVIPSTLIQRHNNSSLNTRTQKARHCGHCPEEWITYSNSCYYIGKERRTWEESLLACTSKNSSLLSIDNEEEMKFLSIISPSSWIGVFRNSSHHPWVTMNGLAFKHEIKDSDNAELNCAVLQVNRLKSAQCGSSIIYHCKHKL
Chain of human NKG2A/CD94 on cells (CHOK1-hNKG2A/CD94) (human) (Q13241 whole entry, chain 2 of 2, further chain): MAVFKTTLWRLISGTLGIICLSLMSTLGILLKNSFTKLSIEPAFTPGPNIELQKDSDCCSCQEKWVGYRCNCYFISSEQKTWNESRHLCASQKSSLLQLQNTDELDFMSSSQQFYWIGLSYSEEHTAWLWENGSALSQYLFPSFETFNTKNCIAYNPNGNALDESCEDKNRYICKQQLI

B1: NKG2A positive control antibody Z270 (Monalizumab) (antibody, INN chains, looked up, V domains shown)
VH: QVQLVQSGAEVKKPGASVKVSCKASGYTFTSYWMNWVRQAPGQGLEWMGRIDPYDSETHYAQKLQGRVTMTTDTSTSTAYMELRSLRSDDTAVYYCARGGYDFDVGTLYWFFDVWGQGTTVTVSS
VL: DIQMTQSPSSLSASVGDRVTITCRASENIYSYLAWYQQKPGKAPKLLIYNAKTLAEGVPSRFSGSGSGTDFTLTISSLQPEDFATYYCQHHYGTPRTFGGGTKVEIK
With B1, the IC50 (nM), killing of LCL721.221 target cells by NK92 cells in assay [1] was found to be 1.11 nM; in assay [2] it was 0.57 nM. Besides, the Maximum MFI in assay [3] was found to be 16100 MFI.
